Measurements: US20250320281A1

How the values were obtained:
[1] = target: HIV-1 Env of pseudovirus isolate MGRM-G-004 (HIV-1); assay: cell-based or functional assay
[2] = target: HIV-1 Env of isolate MGRM-C-006 (HIV-1); assay: cell-based or functional assay
[3] = target: HIV-1 Env of isolate MGRM-C-001 (HIV-1); assay: cell-based or functional assay
[4] = target: HIV-1 Env of isolate MGRM-C-004 (HIV-1); assay: cell-based or functional assay
[5] = target: HIV-1 Env of isolate MGRM-C-025 (HIV-1); assay: cell-based or functional assay
[6] = target: HIV-1 Env of pseudovirus isolate MGRM-G-015 (HIV-1); assay: cell-based or functional assay
[7] = target: HIV-1 Env of isolate MGRM-C-020 (HIV-1); assay: cell-based or functional assay
[8] = target: HIV-1 Env of isolate MGRM-C-005 (HIV-1); assay: cell-based or functional assay
[9] = target: HIV-1 Env of isolate MGRM-C-008 (HIV-1); assay: cell-based or functional assay
[10] = target: HIV-1 Env of isolate MGRM-C-014 (HIV-1); assay: cell-based or functional assay
[11] = target: envelope of aMLV pseudovirus (negative control); assay: cell-based or functional assay
[12] = target: HIV-1 Env of pseudovirus isolate MGRM-G-006 (HIV-1); assay: cell-based or functional assay
[13] = target: HIV-1 Env of pseudovirus isolate MGRM-G-009 (HIV-1); assay: cell-based or functional assay
[14] = target: HIV-1 Env of isolate MGRM-C-022 (HIV-1); assay: cell-based or functional assay
[15] = target: HIV-1 Env of pseudovirus isolate MGRM-G-014 (HIV-1); assay: cell-based or functional assay
[16] = target: HIV-1 Env of isolate MGRM-C-013 (HIV-1); assay: cell-based or functional assay
[17] = target: HIV-1 Env of pseudovirus isolate MGRM-G-019 (HIV-1); assay: cell-based or functional assay
[18] = target: HIV-1 Env of pseudovirus isolate MGRM-G-013 (HIV-1); assay: cell-based or functional assay
[19] = target: HIV-1 Env of isolate MGRM-C-007 (HIV-1); assay: cell-based or functional assay
[20] = target: HIV-1 Env of isolate MGRM-C-024 (HIV-1); assay: cell-based or functional assay
[21] = target: HIV-1 Env of isolate MGRM-C-023 (HIV-1); assay: cell-based or functional assay
[22] = target: HIV-1 Env of pseudovirus isolate MGRM-G-011 (HIV-1); assay: cell-based or functional assay
[23] = target: HIV-1 Env of isolate MGRM-C-010 (HIV-1); assay: cell-based or functional assay
[24] = target: HIV-1 Env of isolate MGRM-C-012 (HIV-1); assay: cell-based or functional assay
[25] = target: HIV-1 Env of pseudovirus isolate MGRM-G-017 (HIV-1); assay: cell-based or functional assay
[26] = target: HIV-1 Env of isolate MGRM-C-019 (HIV-1); assay: cell-based or functional assay
[27] = target: HIV-1 Env of pseudovirus isolate MGRM-G-016 (HIV-1); assay: cell-based or functional assay
[28] = target: HIV-1 Env of isolate MGRM-C-015 (HIV-1); assay: cell-based or functional assay
[29] = target: HIV-1 Env of pseudovirus isolate MGRM-G-027 (HIV-1); assay: cell-based or functional assay
[30] = target: HIV-1 Env of isolate MGRM-C-002 (HIV-1); assay: cell-based or functional assay
[31] = target: HIV-1 Env of pseudovirus isolate MGRM-G-001 (HIV-1); assay: cell-based or functional assay
[32] = target: HIV-1 Env of isolate MGRM-C-009 (HIV-1); assay: cell-based or functional assay
[33] = target: HIV-1 Env of isolate MGRM-C-017 (HIV-1); assay: cell-based or functional assay
WT JR-FL gp120 (HIV-1) = assay: ELISA, antigen-coated wells
[34] = target: HIV-1 92UG024 Env (pseudovirus) (HIV-1); assay: cell-based or functional assay
[35] = target: HIV-1 NL43 Env (pseudovirus) (HIV-1); assay: cell-based or functional assay
[36] = target: HIV-1 92UG005 Env (pseudovirus) (HIV-1); assay: cell-based or functional assay
[37] = target: HIV-1 92TH021 Env (pseudovirus) (HIV-1); assay: cell-based or functional assay
[38] = target: HIV-1 CMU02 Env (pseudovirus) (HIV-1); assay: cell-based or functional assay

Substance | IC50 (µg/mL), pseudovirus neutralization [1] | neutralization IC50 [2] | neutralization IC50 [3] | neutralization IC50 [4] | neutralization IC50 [5] | IC50 (µg/mL), pseudovirus neutralization [6] | neutralization IC50 [7] | neutralization IC50 [8] | neutralization IC50 [9] | neutralization IC50 [10] | IC50 (µg/mL), pseudovirus neutralization [11] | IC50 (µg/mL), pseudovirus neutralization [12] | IC50 (µg/mL), pseudovirus neutralization [13] | neutralization IC50 [14] | IC50 (µg/mL), pseudovirus neutralization [15] | neutralization IC50 [16] | IC50 (µg/mL), pseudovirus neutralization [17] | IC50 (µg/mL), pseudovirus neutralization [18] | neutralization IC50 [19] | neutralization IC50 [20] | further results
5145_B14 (PGT-127) (antibody) | > 50 µg/mL | 0.319 µg/mL | > 50 µg/mL | 0.532 µg/mL | > 50 µg/mL | > 50 µg/mL | > 50 µg/mL | 0.57 µg/mL | > 50 µg/mL | > 50 µg/mL | > 50 µg/mL | > 50 µg/mL | > 50 µg/mL | 0.41 µg/mL | 0.009 µg/mL | > 50 µg/mL | 0.429 µg/mL | 7.7 µg/mL | > 50 µg/mL | > 50 µg/mL | neutralization IC50 [21]: 1.08 µg/mL; IC50 (µg/mL), pseudovirus neutralization [22]: > 50 µg/mL; neutralization IC50 [23]: > 50 µg/mL; neutralization IC50 [24]: 1.07 µg/mL; IC50 (µg/mL), pseudovirus neutralization [25]: > 50 µg/mL; neutralization IC50 [26]: 0.017 µg/mL; IC50 (µg/mL), pseudovirus neutralization [27]: > 50 µg/mL; neutralization IC50 [28]: > 50 µg/mL; IC50 (µg/mL), pseudovirus neutralization [29]: > 50 µg/mL; neutralization IC50 [30]: 0.057 µg/mL; IC50 (µg/mL), pseudovirus neutralization [31]: 0.113 µg/mL; neutralization IC50 [32]: > 50 µg/mL; neutralization IC50 [33]: 3.4 µg/mL; EC50 (WT JR-FL gp120 (HIV-1)): 0.1 µg/mL
4838_L06 (PGT-121) (antibody) | 0.115 µg/mL | 0.017 µg/mL | 17.5 µg/mL | 0.011 µg/mL | 46.8 µg/mL | > 50 µg/mL | > 50 µg/mL | 0.015 µg/mL | 0.012 µg/mL | 26.9 µg/mL | > 50 µg/mL | > 50 µg/mL | 0.02 µg/mL | 0.015 µg/mL | 0.009 µg/mL | 7.23 µg/mL | 0.011 µg/mL | 3.99 µg/mL | 0.196 µg/mL | 0.052 µg/mL | neutralization IC50 (pseudovirus) [34]: > 10 µg/mL; neutralization IC50 (pseudovirus) [35]: > 10 µg/mL; neutralization IC50 (pseudovirus) [36]: > 10 µg/mL; neutralization IC50 [21]: 0.017 µg/mL; IC50 (µg/mL), pseudovirus neutralization [22]: 3.17 µg/mL; neutralization IC50 [23]: > 50 µg/mL; neutralization IC50 [24]: 0.123 µg/mL; neutralization IC50 (pseudovirus) [37]: > 10 µg/mL; IC50 (µg/mL), pseudovirus neutralization [25]: 0.004 µg/mL; neutralization IC50 (pseudovirus) [38]: > 10 µg/mL; neutralization IC50 [26]: > 50 µg/mL; IC50 (µg/mL), pseudovirus neutralization [27]: > 50 µg/mL; neutralization IC50 [28]: 25.1 µg/mL; IC50 (µg/mL), pseudovirus neutralization [29]: 0.124 µg/mL; neutralization IC50 [30]: 0.019 µg/mL; IC50 (µg/mL), pseudovirus neutralization [31]: 0.004 µg/mL; neutralization IC50 [32]: > 50 µg/mL; neutralization IC50 [33]: 0.009 µg/mL; EC50 (WT JR-FL gp120 (HIV-1)): 0.2 µg/mL
